Assay results from paper PMC8352597.

How the values were obtained:
[1] = molecular target: microtubules polymerised from porcine brain tubulin (porcine) (UniProt P02550); test: TIRF microscopy (sfGFP fluorescence intensity on immobilised microtubules); as a3, but DCLK1 pre-incubated with 2 mM ATP for 30 min at 25°C
[2] = molecular target: microtubules polymerised from porcine brain tubulin (porcine) (UniProt P02550); test: co-sedimentation; as a5, but DCLK1 pre-incubated with 2 mM ATP at 25°C for 30 min
[3] = molecular target: microtubules polymerised from porcine brain tubulin (porcine) (UniProt P02550); test: TIRF microscopy (sfGFP fluorescence intensity on immobilised microtubules); non-stabilized GDP microtubules grown from GMPCPP seeds fixed to the coverslip; 10 nM DCLK1 with 10 uM tubulin and 2 mM GTP in BRB80-based assay buffer; DCLK1 pre-incubated 30 min at 25°C without ATP
[4] = molecular target: microtubules polymerised from porcine brain tubulin (porcine) (UniProt P02550); test: co-sedimentation; 500 nM sfGFP-DCLK1 with 2 μM taxol-stabilized microtubules, 25°C 20 min, pelleted at 90,000 xg; 50 mM Tris pH 8, 150 mM K acetate, 2 mM Mg acetate, 1 mM EGTA, 10% glycerol; DCLK1 pre-incubated 30 min without ATP
[5] = molecular target: microtubules polymerised from porcine brain tubulin (porcine) (UniProt P02550); test: TIRF microscopy (sfGFP fluorescence intensity on immobilised microtubules); taxol-stabilized microtubules immobilised on the glass surface, sfGFP-DCLK1 flowed in; no ATP; 60 mM HEPES pH 7.4, 50 mM K acetate, 2 mM Mg acetate, 1 mM EGTA, 10% glycerol, biotin-BSA, Pluronic, κ-casein, 10 μM …; KD from a one-site-binding hyperbola fit of intensity against concentration
[6] = molecular target: microtubules polymerised from porcine brain tubulin (porcine) (UniProt P02550); test: TIRF microscopy (sfGFP fluorescence intensity on immobilised microtubules); as a1, but DCLK1 incubated with 2 mM ATP for 30 min at 25°C before it was flowed onto immobilised taxol-stabilized microtubules; KD from a one-site-binding hyperbola fit

microtubules polymerised from porcine brain tubulin (porcine), sequence (P02550 whole entry, chain 1 of 2): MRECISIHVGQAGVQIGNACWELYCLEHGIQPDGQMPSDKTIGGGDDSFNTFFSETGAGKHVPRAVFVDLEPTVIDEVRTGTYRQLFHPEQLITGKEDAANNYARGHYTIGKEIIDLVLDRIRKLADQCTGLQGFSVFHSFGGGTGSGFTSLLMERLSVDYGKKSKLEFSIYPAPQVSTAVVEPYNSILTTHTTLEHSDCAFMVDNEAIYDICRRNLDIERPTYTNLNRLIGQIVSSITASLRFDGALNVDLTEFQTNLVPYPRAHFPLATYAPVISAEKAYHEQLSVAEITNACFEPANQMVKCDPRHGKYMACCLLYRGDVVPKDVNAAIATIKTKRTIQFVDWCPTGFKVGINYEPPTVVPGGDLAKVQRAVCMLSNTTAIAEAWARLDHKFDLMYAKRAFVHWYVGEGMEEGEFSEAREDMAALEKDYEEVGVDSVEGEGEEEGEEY
microtubules polymerised from porcine brain tubulin (porcine), sequence (P02554 whole entry, chain 2 of 2, further chain): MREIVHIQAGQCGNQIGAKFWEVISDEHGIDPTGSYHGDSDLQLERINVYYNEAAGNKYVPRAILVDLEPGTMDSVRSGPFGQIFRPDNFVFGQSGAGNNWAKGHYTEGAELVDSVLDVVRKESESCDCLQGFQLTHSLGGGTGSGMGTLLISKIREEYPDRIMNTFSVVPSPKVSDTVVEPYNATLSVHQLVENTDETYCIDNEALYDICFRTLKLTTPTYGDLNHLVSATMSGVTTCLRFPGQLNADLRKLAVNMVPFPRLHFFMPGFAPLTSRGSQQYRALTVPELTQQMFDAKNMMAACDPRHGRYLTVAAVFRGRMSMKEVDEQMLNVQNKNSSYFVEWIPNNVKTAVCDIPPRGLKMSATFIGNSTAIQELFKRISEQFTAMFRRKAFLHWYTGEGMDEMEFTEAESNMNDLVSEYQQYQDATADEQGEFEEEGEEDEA

“sfGFP-DCLK1 wild type (mouse, aa 1-740), co-expressed with lambda phosphatase, autophosphorylated by 30 min with 2 mM ATP (natural protein)” was tested, and the microtubule-bound fluorescence intensity at 10 nM [1] was 12500 and the percent of DCLK1 that co-pelleted with microtubules [2] was 86.2%.

“sfGFP-DCLK1 wild type (mouse, aa 1-740), co-expressed with lambda phosphatase, not incubated with ATP (natural protein)” gave a microtubule-bound fluorescence intensity at 10 nM [3] of 15000 and a percent of DCLK1 that co-pelleted with microtubules [4] of 99.3%.

“sfGFP-DCLK1 wild type (mouse, aa 1-740), expressed in bacteria under standard conditions (natural protein)” was tested, and the microtubule-bound fluorescence intensity at 3 nM [5] was 2750 and the microtubule-bound fluorescence intensity at 25 nM [5] was 16100.

Substance “sfGFP-DCLK1 wild type (mouse, aa 1-740), treated with lambda phosphatase after purification (natural protein)” has a microtubule-bound fluorescence intensity at 3 nM [5] of 15100 and a microtubule-bound fluorescence intensity at 25 nM [5] of 18200.

In the case of “sfGFP-DCLK1-D511N (kinase-dead, mouse, full length) (natural protein)”, the microtubule-bound fluorescence intensity at 3 nM [5] is reported as 9070 and the microtubule-bound fluorescence intensity at 25 nM [5] is reported as 19700.

With “sfGFP-DCLK1-T688A (mouse, full length), co-expressed with lambda phosphatase, incubated 30 min with 2 mM ATP (natural protein)” the percent of DCLK1 that co-pelleted with microtubules [2] was 7.9%.

In the case of “sfGFP-DCLK1-T688A (mouse, full length), co-expressed with lambda phosphatase, not incubated with ATP (natural protein)”, the percent of DCLK1 that co-pelleted with microtubules [4] is reported as 98.9%.

Substance “sfGFP-DCLK1-ΔC (mouse, aa 1-648), co-expressed with lambda phosphatase, hyperphosphorylated by 30 min with 2 mM ATP (domain or fragment)” has a microtubule-bound fluorescence intensity at 5 nM [6] of 988, a microtubule-bound fluorescence intensity at 20 nM [6] of 1580 and a microtubule-bound fluorescence intensity at 10 nM [1] of 1580. It also gave a percent of DCLK1 that co-pelleted with microtubules [2] of 6.9%.

“sfGFP-DCLK1-ΔC (mouse, aa 1-648), co-expressed with lambda phosphatase, not incubated with ATP (domain or fragment)” was tested, and the microtubule-bound fluorescence intensity at 10 nM [3] was 12100, the microtubule-bound fluorescence intensity at 5 nM [5] was 12900 and the microtubule-bound fluorescence intensity at 20 nM [5] was 23600. The percent of DCLK1 that co-pelleted with microtubules [4] was 96.3%.

“sfGFP-DCLK1-ΔC (mouse, aa 1-648), treated with lambda phosphatase after purification (domain or fragment)” gave a microtubule-bound fluorescence intensity at 3 nM [5] of 12000 and a microtubule-bound fluorescence intensity at 25 nM [5] of 21200.

“sfGFP-DCLK1-ΔC DC1-4A (S77, S83, S96, T143 to alanine), co-expressed with lambda phosphatase, incubated with ATP (domain or fragment)” gave a microtubule-bound fluorescence intensity at 5 nM [6] of 4040 and a microtubule-bound fluorescence intensity at 20 nM [6] of 12600.

“sfGFP-DCLK1-ΔC DC1-4A (S77, S83, S96, T143 to alanine), co-expressed with lambda phosphatase, not incubated with ATP (domain or fragment)” gave a microtubule-bound fluorescence intensity at 5 nM [5] of 12200 and a microtubule-bound fluorescence intensity at 20 nM [5] of 22300.

With “sfGFP-DCLK1-ΔC DC2-4A (T189, S193, T218, S228 to alanine), co-expressed with lambda phosphatase, incubated with ATP (domain or fragment)” the microtubule-bound fluorescence intensity at 5 nM [6] was 2480 and the microtubule-bound fluorescence intensity at 20 nM [6] was 3500.

“sfGFP-DCLK1-ΔC DC2-4A (T189, S193, T218, S228 to alanine), co-expressed with lambda phosphatase, not incubated with ATP (domain or fragment)” showed a microtubule-bound fluorescence intensity at 5 nM [5] of 8550 and a microtubule-bound fluorescence intensity at 20 nM [5] of 19900.
